Source: article PMC3438196

B1: Apobec3G-GFP MAPPIT bait (pCEL-Apobec3G-GFP) [human] / Apobec3G MAPPIT prey (pMG2-Apobec3G) [human] (parent)
chain 1: MKPHFRNTVERMYRDTFSYNFYNRPILSRRNTVWLCYEVKTKGPSRPPLDAKIFRGQVYSELKYHPEMRFFHWFSKWRKLHRDQEYEVTWYISWSPCTKCTRDMATFLAEDPKVTLTIFVARLYYFWDPDYQEALRSLCQKRDGPRATMKIMNYDEFQHCWSKFVYSQRELFEPWNNLPKYYILLHIMLGEILRHSMDPPTFTFNFNNEPWVRGRHETYLCYEVERMHNDTWVLLNQRRGFLCNQAPHKHGFLEGRHAELCFLDVIPFWKLDLDQDYRVTCFTSWSPCFSCAQEMAKFISKNKHVSLCIFTARIYDDQGRCQEGLRTLAEAGAKISIMTYSEFKHCWDTFVDHQGCPFQPWDGLDEHSQDLSGRLRAILQNQEN
chain 2: B1 chain 1

Variants of: B1
Assay: MAPPIT
Conditions: with Apobec3G MAPPIT prey (pMG2-Apobec3G) [human]

| Variant | percent of parent |
| --- | --- |
| chain 1 R78W | 18 % of WT |
| chain 1 K63R | 5 % of WT |
| chain 1 D128G | 47 % of WT |
| chain 1 K270E | 54 % of WT |
| chain 1 R30L | 10 % of WT |
| chain 1 W175R | 28 % of WT |
| chain 1 R24G | 5 % of WT |
| chain 1 W94R | 14 % of WT |
| chain 1 W269G | 68 % of WT |
| chain 1 Y222N | 7 % of WT |
| chain 1 E191V | 40 % of WT |
